The RNAGym collection of RNA variant scans (doi:10.7554/elife.80360)

B1: CPEB3 Ribozyme (parent)
chain: GGGGGCCACAGCAGAAGCGUUCACGUCGCGGCCCCUGUCAGAUUCUGGUGAAUCUGCGAAUUCUGCUGU

Variants of: B1
Assay: self-cleavage, relative activity (ratio to wild type); higher = more cleavage; co-transcriptional

Row | Variant | self-cleavage
1 | GGGGGCCACAGGAGAAGCGUUCACGUCGCGGCCCCUUUCAGAUUCUGGUGAAUCUGCGAAUUCUGCUGU | 0.223
2 | GGGGGCCACAGGAGAAGCGUUCACGUCGCGGCCCCUCUCAGAUUCUGGUGAAUCUGCGAAUUCUGCUGU | 0.205
3 | GGGGGCCACAGGAGAAGCGUUCACGUCGCGGCCCCUGUCAGAGUCUGGUGAAUCUGCGAAUUCUGCUGU | 0.361
4 | GGGGGCCACAGAAGAAGCGUUCACGUCGCGGCCCCUCUCAGAUUCUGGUGAAUCUGCGAAUUCUGCUGU | 0.149
5 | GGGGGCCACAGAAGAAGCGUUCACGUCGCGGCCCCUUUCAGAUUCUGGUGAAUCUGCGAAUUCUGCUGU | 0.18
6 | GGGGGCCACAGGAGAAGCGUUCACGUCGCGGCCCCUGUCAGAUUCUGGUGAAUCUGCCAAUUCUGCUGU | 0.834
7 | GGGGGCCACAGAAGAAGCGUUCACGUCGCGGCCCCUGUCAGAUUCUGUUGAAUCUGCGAAUUCUGCUGU | 0.8
8 | GGGGGCCACAGGAGAAGCGUUCCCGUCGCGGCCCCUGUCAGAUUCUGGUGAAUCUGCGAAUUCUGCUGU | 0.628
9 | GGGGGCCACAGGAGAAGCGUUCUCGUCGCGGCCCCUGUCAGAUUCUGGUGAAUCUGCGAAUUCUGCUGU | 0.55
10 | GGGGGCCACAGGAGAAGCGUUCGCGUCGCGGCCCCUGUCAGAUUCUGGUGAAUCUGCGAAUUCUGCUGU | 0.721
11 | GGGGGCCACAGGAGAAGCGUUCACGUCGCGGCCCCUGUCAGAUUCUGGCGAAUCUGCGAAUUCUGCUGU | 0.827
12 | GGGGGCCACAGGAGAAGCGUUCACGUCGCGGCCCCUGUCAGAUUCUGGAGAAUCUGCGAAUUCUGCUGU | 0.934
13 | GGGGGCCACAGGAGAAGCGUUCACGUCGCGGCCCCUGUCAGAUUCUGGUGAAUCUGCGAACUCUGCUGU | 0.282
14 | GGGGGCCACAGAAGAAGCGUUCACGUCGCGGCCCCUGUCAGAUUCUGGUGAAUCUGCGAAUUCUCCUGU | 0.841
15 | GGGGGCCACAGGAGAAGCGUUCACGUCGCGGCCCCCGUCAGAUUCUGGUGAAUCUGCGAAUUCUGCUGU | 0.669
16 | GGGGGCCACAGGAGAAUCGUUCACGUCGCGGCCCCUGUCAGAUUCUGGUGAAUCUGCGAAUUCUGCUGU | 0.165
17 | GGGGGCCACAGGAGAAGCGUUCACGUCGCGGCUCCUGUCAGAUUCUGGUGAAUCUGCGAAUUCUGCUGU | 0.405
18 | GGGGGCCACAGGAGAAGCGUUCACGUCGCGGCCCCUGUCAGAUACUGGUGAAUCUGCGAAUUCUGCUGU | 0.727
19 | GGGGGCCACAGGAGAAGCGUUCACGUCGCGGCCCCUGUCAGAUUCUGGUGAAUCUGCGAAUCCUGCUGU | 0.458
20 | GGGGGCCACAGGAGAAGCGUUCACGUCGCGGCCCCUGUCAGAUUCUGGUGAAUCUGCGAAUACUGCUGU | 0.349
21 | GGGGGCCACAGGGGAAGCGUUCACGUCGCGGCCCCUGUCAGAUUCUGGUGAAUCUGCGAAUUCUGCUGU | 0.48
22 | GGGGGCCACAGGAGAAGCGUUCACGUGGCGGCCCCUGUCAGAUUCUGGUGAAUCUGCGAAUUCUGCUGU | 0.1
23 | GGGGGCCACAGAAGAAGCGUUCACGUCGCGGCCCCAGUCAGAUUCUGGUGAAUCUGCGAAUUCUGCUGU | 0.194
24 | GGGGGCCACAGAAGAAGCGUUCACGUCGCGGCCCCGGUCAGAUUCUGGUGAAUCUGCGAAUUCUGCUGU | 0.154
25 | GGGGGCCACAGGAGAAGCGUCCACGUCGCGGCCCCUGUCAGAUUCUGGUGAAUCUGCGAAUUCUGCUGU | 0.308
26 | GGGGGCCACAGGAGAAGCGUUCACGUCGCGGCCCCUGUCAGAUUCUGGUGAAUCUACGAAUUCUGCUGU | 0.741

Row | Variant | self-cleavage
27 | GGGGGCCACAGGAGAAGCGUUCACGUCGCGGCCCCUGUCAGAUUCUGGUGAAUCUUCGAAUUCUGCUGU | 0.544
28 | GGGGGCCACAGGAGAAGCGUUCACGUCGCGGCCCCUGUCAGAUUCUGGUGAAUCUGCGAAUUUUGCUGU | 0.53
29 | GGGGGCCACAGGAGAAGCGUUCACGUCUCGGCCCCUGUCAGAUUCUGGUGAAUCUGCGAAUUCUGCUGU | 0.11
30 | GGGGGCCACAGGAGAAGCGUUCACGUCGCGGCCCCUGUCAGAUUCUGGUGAAUCUGCGAAUUCUGCUAU | 0.972
31 | GGGGGCCACAGGAGAAGCGUUCACGUCGCGGCCCCUGUCAGAUUCUGGUGAAUCUGCGAAUUCUGCUCU | 0.832
32 | GGGGGCCACAGAAGAAGCGUUCACGUCGCGGCCCCUGUCAGAUUCUGGUGAAUCUGCAAAUUCUGCUGU | 0.62
33 | GGGGGCCACAGGAGAAGCGUUCACGUCGCGGCCCGUGUCAGAUUCUGGUGAAUCUGCGAAUUCUGCUGU | 0.369
34 | GGGGGCCACAGGAGAAGCGUUCACGUCGCGGCCCAUGUCAGAUUCUGGUGAAUCUGCGAAUUCUGCUGU | 0.326
35 | GGGGGCCACAGGAGAAGCGUUCACCUCGCGGCCCCUGUCAGAUUCUGGUGAAUCUGCGAAUUCUGCUGU | 0.166
36 | GGGGGCCACAGGAGAAGCGUUCACGUCGCGGCCCCUGUCCGAUUCUGGUGAAUCUGCGAAUUCUGCUGU | 0.318
37 | GGGGGCCACAGGAUAAGCGUUCACGUCGCGGCCCCUGUCAGAUUCUGGUGAAUCUGCGAAUUCUGCUGU | 0.118
38 | GGGGGCCACAGGACAAGCGUUCACGUCGCGGCCCCUGUCAGAUUCUGGUGAAUCUGCGAAUUCUGCUGU | 0.0732
39 | GGGGGCCACAGGAAAAGCGUUCACGUCGCGGCCCCUGUCAGAUUCUGGUGAAUCUGCGAAUUCUGCUGU | 0.127
40 | GGGGGCCACAGAAGAAGCGUUCACGUCGCGGCCCCUGUCAGAUUCUGGUGAAUCCGCGAAUUCUGCUGU | 0.366
41 | GGGGGCCACAGGAGAAGCGUUCACGUCGCGGCCCCUGUCAGAUUCUGCUGAAUCUGCGAAUUCUGCUGU | 0.949
42 | GGGGGCCACAGGAGAAGCGUUCACGUCGCGGCCGCUGUCAGAUUCUGGUGAAUCUGCGAAUUCUGCUGU | 0.69
43 | GGGGGCCACAGGAGAAGCGUUCACGUCGCGGCCCCUGUAAGAUUCUGGUGAAUCUGCGAAUUCUGCUGU | 0.484
44 | GGGGGCCACAGGAGAAGCGUUCACGUCGCGGCCCCUGCCAGAUUCUGGUGAAUCUGCGAAUUCUGCUGU | 0.745
45 | GGGGGCCACAGGAGAAGCGUUCACGUCGCUGCCCCUGUCAGAUUCUGGUGAAUCUGCGAAUUCUGCUGU | 0.26
46 | GGGGGCCACAGGAGAAGCGUUCACGUCGCAGCCCCUGUCAGAUUCUGGUGAAUCUGCGAAUUCUGCUGU | 0.43
47 | GGGGGCCACAGGAGAAGCGUUCACGUCGCGGCCCCUGUCAGAUUCUGGUGAAUCUGCGAAUUCUGCUGU | 0.92
48 | GGGGGCCACAGGAGAUGCGUUCACGUCGCGGCCCCUGUCAGAUUCUGGUGAAUCUGCGAAUUCUGCUGU | 0.486
49 | GGGGGCCACAGGAGACGCGUUCACGUCGCGGCCCCUGUCAGAUUCUGGUGAAUCUGCGAAUUCUGCUGU | 0.177
50 | GGGGGCCACAGGAGAAGCGUUGACGUCGCGGCCCCUGUCAGAUUCUGGUGAAUCUGCGAAUUCUGCUGU | 0.208
51 | GGGGGCCACAGGAGAAGCGUUAACGUCGCGGCCCCUGUCAGAUUCUGGUGAAUCUGCGAAUUCUGCUGU | 0.164
52 | GGGGGCCACAGAAGAAGCGUUCACGUCGCGGCCCCUGUCAGAUUCUGGUGAAUCUGCGAAUUCAGCUGU | 0.582

Row | Variant | self-cleavage
53 | GGGGGCCACAGAAGAAGCGUUCACGUCGCGGCCCCUGUCAGAUUCUGGUGAAUCUGCGAAUUCCGCUGU | 0.58
54 | GGGGGCCACAGAAGAAGCGUUCACGUCGCGGCCCCUGUCAGAUUCUGGCGAAUCUGCGAAUUCUGCUGU | 0.73
55 | GGGGGCCACAGAAGAAGCGUUCACGUCGCGGCCCCUGUCAGAUUCUGGUGAAUCUGCGAAUUCUGCUGG | 0.925
56 | GGGGGCCACAGAAGAAGCGUUCACGUCGCGGCCCCUGACAGAUUCUGGUGAAUCUGCGAAUUCUGCUGU | 0.493
57 | GGGGGCCACAGAAGAAGCGUUCACGUCGCGGCCCCUGCCAGAUUCUGGUGAAUCUGCGAAUUCUGCUGU | 0.516
58 | GGGGGCCACAGAAGAAGCGUGCACGUCGCGGCCCCUGUCAGAUUCUGGUGAAUCUGCGAAUUCUGCUGU | 0.0774
59 | GGGGGCCACAGGAGAAGCGUUCACGUCGCGGCCCCUGUCAGAUUCUGGUGAAUCUGCGUAUUCUGCUGU | 0.4
60 | GGGGGCCACAGGAGAAGCGUUCACGUCGCGGCCCCUGUCAGAUUCUGGUGAAUCUGCGAUUUCUGCUGU | 0.367
61 | GGGGGCCACAGGAGAAGCGUUCAGGUCGCGGCCCCUGUCAGAUUCUGGUGAAUCUGCGAAUUCUGCUGU | 0.199
62 | GGGGGCCACAGGAGAAGCGUUCAAGUCGCGGCCCCUGUCAGAUUCUGGUGAAUCUGCGAAUUCUGCUGU | 0.374
63 | GGGGGCCACAGGAGAAGCGUUCAUGUCGCGGCCCCUGUCAGAUUCUGGUGAAUCUGCGAAUUCUGCUGU | 0.435
64 | GGGGGCCACAGGAGAAGCGUUCACGUCGCGGCCCCUGUCAGAUUCUGGUGUAUCUGCGAAUUCUGCUGU | 0.854
65 | GGGGGCCACAGAAGAAGCGUUCACGUCGCGGCCCCUGUCAGAUUCUGGUGAACCUGCGAAUUCUGCUGU | 0.232
66 | GGGGGCCACAGAAGAAGCGUUCACGACGCGGCCCCUGUCAGAUUCUGGUGAAUCUGCGAAUUCUGCUGU | 0.374
67 | GGGGGCCACAGAAGAAGCGUUCACGGCGCGGCCCCUGUCAGAUUCUGGUGAAUCUGCGAAUUCUGCUGU | 0.447
68 | GGGGGCCACAGAAGAAGCGUUCACGUCGCGGCCCCUGUCAGAUUCAGGUGAAUCUGCGAAUUCUGCUGU | 0.804
69 | GGGGGCCACAGGAGAAGCUUUCACGUCGCGGCCCCUGUCAGAUUCUGGUGAAUCUGCGAAUUCUGCUGU | 0.0842
70 | GGGGGCCACAGGAGAAGCCUUCACGUCGCGGCCCCUGUCAGAUUCUGGUGAAUCUGCGAAUUCUGCUGU | 0.0934
71 | GGGGGCCACAGGAGAAGCAUUCACGUCGCGGCCCCUGUCAGAUUCUGGUGAAUCUGCGAAUUCUGCUGU | 0.137
72 | GGGGGCCACAGGAGAAGCGUUCACGUCGGGGCCCCUGUCAGAUUCUGGUGAAUCUGCGAAUUCUGCUGU | 0.152
73 | GGGGGCCACAGAAGAAGCGUUCACGUCGCGGCCCCUGUCAAAUUCUGGUGAAUCUGCGAAUUCUGCUGU | 0.213
74 | GGGGGCCACAGGAGAAGCGCUCACGUCGCGGCCCCUGUCAGAUUCUGGUGAAUCUGCGAAUUCUGCUGU | 0.119
75 | GGGGGCCACAGGAGAAGCGUUCACGUCGCGGCCCCUGUCAGAUUCUGGUGAAUGUGCGAAUUCUGCUGU | 0.518
76 | GGGGGCCACAGAAGAAGCGUUCACGUCGCGGCCCCUGUCAGAUUCUGGUGAAUCUGCGAAUCCUGCUGU | 0.338
77 | GGGGGCCACAGGAGAAGCGUUCACGUCGCGGCCCCUGUCAUAUUCUGGUGAAUCUGCGAAUUCUGCUGU | 0.377
78 | GGGGGCCACAGGAGAAGCGUUCACGUCGCGGCCCCUGUCACAUUCUGGUGAAUCUGCGAAUUCUGCUGU | 0.416
